In patent US20240059799A1 (Pfizer, published 2024):

T1: recombinant human TL1A (human, UniProt O95150 71-251)
T1 construct: Homotrimeric cytokine; biotinylated with Sulfo-NHS-biotin where captured for SPR, coated unlabelled in ELISA, soluble in bioassays; also called TNFSF15
T1 chain: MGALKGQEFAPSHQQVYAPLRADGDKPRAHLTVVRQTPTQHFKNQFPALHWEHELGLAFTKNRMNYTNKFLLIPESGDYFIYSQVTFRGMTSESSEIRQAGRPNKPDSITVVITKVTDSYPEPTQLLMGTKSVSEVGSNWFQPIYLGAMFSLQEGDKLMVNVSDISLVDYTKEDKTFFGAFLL

T2: human IL-23 (human, UniProt P29460 23-328; Q9NPF7 20-189)
T2 construct: Heterodimer p40/p19; Whole entries as named; also called IL-23 Human; recombinant human IL-23
T2 sequence 1: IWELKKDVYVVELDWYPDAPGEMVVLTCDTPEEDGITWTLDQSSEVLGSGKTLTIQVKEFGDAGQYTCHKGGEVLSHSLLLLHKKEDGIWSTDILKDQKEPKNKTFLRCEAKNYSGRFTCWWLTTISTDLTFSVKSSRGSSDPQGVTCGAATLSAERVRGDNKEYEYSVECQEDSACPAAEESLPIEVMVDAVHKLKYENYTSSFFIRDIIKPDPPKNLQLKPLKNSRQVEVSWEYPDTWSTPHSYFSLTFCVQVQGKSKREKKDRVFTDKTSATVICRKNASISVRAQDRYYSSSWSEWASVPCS
T2 sequence 2: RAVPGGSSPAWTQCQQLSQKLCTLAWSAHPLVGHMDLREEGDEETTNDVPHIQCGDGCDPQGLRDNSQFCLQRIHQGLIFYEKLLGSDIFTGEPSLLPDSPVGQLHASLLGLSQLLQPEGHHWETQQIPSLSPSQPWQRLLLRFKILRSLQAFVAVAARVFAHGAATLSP


Legend:
recombinant human TL1A = target: T1, recombinant human TL1A; assay: SPR 37 C, biotinylated human TL1A captured, bispecific injected
Method: (§1) SPR was utilized to determine if the affinity constants of each arm of the bispecific variants binding human IL-23, containing the p40 subunit, and human TL1A were the same for each bispecific approach. For the analysis of the p40 binding arm, kinetic assays were conducted at 37° C. using a collection rate of 10 Hz on a Biacore™ 8 K+ instrument (GE Healthcare). An anti-human IgG antibody (anti-human Fc, GE Healthcare, 22-0648-88) was amine coupled to all four flow cells of a carboxymethylated dextran coated sensor chip (GE Healthcare,) using the manufacturer's recommended protocol. […] For the analysis of the TL1A binding arm, kinetic assays were conducted at 37° C. using a collection rate of 10 Hz on a Biacore™ T200 instrument (GE Healthcare).

human IL-23 [1] = target: T2, human IL-23; assay: SPR 37 C, bispecific captured by anti-human Fc, human IL-23 injected
Method: as §1

human IL-23 [2] = target: T2, human IL-23; assay: SPR, bispecific held on captured biotinylated human TL1A, then human IL-23 injected (simultaneous binding)
Method: SPR was used to determine if the bispecific variants could simultaneously bind TL1A and IL-23, containing the p40 domain. For this analysis, a semi-quantitative SPR method was developed using Biacore™ T200 (GE Healthcare) instrumentation. […] The bispecific was injected for 90 seconds at a concentration of 20 μg/m L, a flow rate of 50 μL/minute, and captured to a level of approximately 40-150 RU. Next, recombinant human IL-23 was injected for 60 seconds and a flow rate of 50 μL/minute at a concentration range of 0.37-15 nM.

Kd (recombinant human TL1A) | koff (recombinant human TL1A) | kon (recombinant human TL1A) | Kd (human IL-23 [1]) | koff (human IL-23 [1]) | kon (human IL-23 [1]) | Kd (human IL-23 [2]) | koff (human IL-23 [2]) | kon (human IL-23 [2]) | Binder
0.273 nM | 5.99e-05 s⁻¹ | 219000 M⁻¹ s⁻¹ | 0.9 nM | 0.00157 s⁻¹ | 1.75e+06 M⁻¹ s⁻¹ | 0.107 nM | 0.000571 s⁻¹ | 5.32e+06 M⁻¹ s⁻¹ | p40TL1A-0024 (bispecific antibody, human IgG1, kappa, dual cell, E/R, LS) heavy 1: EVQLVQSGAEVKKPGESLKISCKGSGYSFTTYWLGWVRQMPGKGLDWIGIMSPVDSDIRYSPSFQGQVTMSVDKSITTAYLQWNSLKASDTAMYYCARRRPGQGYFDFWGQGTLVTVSSASTKGPSVFPLAPSSKSTSGGTAALGCLVKDYFPEPVTVSWNSGALTSGVHTFPAVLQSSGLYSLSSVVTVPSSSLGTQTYICNVNHKPSNTKVDKKVEPKSCDKTHTCPPCPAPEAAGAPSVFLFPPKPKDTLMISRTPEVTCVVVDVSHEDPEVKFNWYVDGVEVHNAKTKPREEQYNSTYRVVSVLTVLHQDWLNGKEYKCKVSNKALPAPIEKTISKAKGQPREPQVYTLPPSREEMTKNQVSLTCLVKGFYPSDIAVEWESNGQPENNYKTTPPVLDSDGSFFLYSRLTVDKSRWQQGNVFSCSVLHEALHSHYTQKSLSLSPGK light 1: not shown heavy 2: QVQLVQSGAEVKKPGASVKVSCKASGYDYTYYGISWVRQAPGQGLEWMGWISTYNTGTHYAPSLQGRVTMTTDTSTSTAYMELRSLRSDDTAVYYCARESYYGSGAFRGGMDVWGQGTTVTVSSASTKGPSVFPLAPSSKSTSGGTAALGCLVKDYFPEPVTVSWNSGALTSGVHTFPAVLQSSGLYSLSSVVTVPSSSLGTQTYICNVNHKPSNTKVDKKVEPKSCDKTHTCPPCPAPEAAGAPSVFLFPPKPKDTLMISRTPEVTCVVVDVSHEDPEVKFNWYVDGVEVHNAKTKPREEQYNSTYRVVSVLTVLHQDWLNGKEYKCKVSNKALPAPIEKTISKAKGQPREPQVYTLPPSREEMTKNQVSLTCEVKGFYPSDIAVEWESNGQPENNYKTTPPVLDSDGSFFLYSKLTVDKSRWQQGNVFSCSVLHEALHSHYTQKSLSLSPGK light 2: not shown
0.217 nM | 4.87e-05 s⁻¹ | 224000 M⁻¹ s⁻¹ | 0.659 nM | 0.00121 s⁻¹ | 1.83e+06 M⁻¹ s⁻¹ | 0.0944 nM | 0.000521 s⁻¹ | 5.51e+06 M⁻¹ s⁻¹ | p40TL1A-0018 (bispecific antibody, human IgG1, kappa, dual cell, KiH without Cys in CH3, LS) heavy 1: EVQLVQSGAEVKKPGESLKISCKGSGYSFTTYWLGWVRQMPGKGLDWIGIMSPVDSDIRYSPSFQGQVTMSVDKSITTAYLQWNSLKASDTAMYYCARRRPGQGYFDFWGQGTLVTVSSASTKGPSVFPLAPSSKSTSGGTAALGCLVKDYFPEPVTVSWNSGALTSGVHTFPAVLQSSGLYSLSSVVTVPSSSLGTQTYICNVNHKPSNTKVDKKVEPKSCDKTHTCPPCPAPEAAGAPSVFLFPPKPKDTLMISRTPEVTCVVVDVSHEDPEVKFNWYVDGVEVHNAKTKPREEQYNSTYRVVSVLTVLHQDWLNGKEYKCKVSNKALPAPIEKTISKAKGQPREPQVYTLPPSREEMTKNQVSLWCLVKGFYPSDIAVEWESNGQPENNYKTTPPVLDSDGSFFLYSKLTVDKSRWQQGNVFSCSVLHEALHSHYTQKSLSLSPGK light 1: not shown heavy 2: QVQLVQSGAEVKKPGASVKVSCKASGYDYTYYGISWVRQAPGQGLEWMGWISTYNTGTHYAPSLQGRVTMTTDTSTSTAYMELRSLRSDDTAVYYCARESYYGSGAFRGGMDVWGQGTTVTVSSASTKGPSVFPLAPSSKSTSGGTAALGCLVKDYFPEPVTVSWNSGALTSGVHTFPAVLQSSGLYSLSSVVTVPSSSLGTQTYICNVNHKPSNTKVDKKVEPKSCDKTHTCPPCPAPEAAGAPSVFLFPPKPKDTLMISRTPEVTCVVVDVSHEDPEVKFNWYVDGVEVHNAKTKPREEQYNSTYRVVSVLTVLHQDWLNGKEYKCKVSNKALPAPIEKTISKAKGQPREPQVYTLPPSREEMTKNQVSLSCAVKGFYPSDIAVEWESNGQPENNYKTTPPVLDSDGSFFLVSKLTVDKSRWQQGNVFSCSVLHEALHSHYTQKSLSLSPGK light 2: not shown
0.167 nM | 4.28e-05 s⁻¹ | 256000 M⁻¹ s⁻¹ | 0.901 nM | 0.00156 s⁻¹ | 1.73e+06 M⁻¹ s⁻¹ | 0.09 nM | 0.000584 s⁻¹ | 5.98e+06 M⁻¹ s⁻¹ | p40TL1A-0001 (bispecific antibody, dual cell, EEE/RRR, LS) heavy 1: EVQLVQSGAEVKKPGESLKISCKGSGYSFTTYWLGWVRQMPGKGLDWIGIMSPVDSDIRYSPSFQGQVTMSVDKSITTAYLQWNSLKASDTAMYYCARRRPGQGYFDFWGQGTLVTVSSASTKGPSVFPLAPSSKSTSGGTAALGCLVKDYFPEPVTVSWNSGALTSGVHTFPAVLQSSGLYSLSSVVTVPSSSLGTQTYICNVNHKPSNTKVDKKVEPKSCRKTHTCPRCPAPEAAGAPSVFLFPPKPKDTLMISRTPEVTCVVVDVSHEDPEVKFNWYVDGVEVHNAKTKPREEQYNSTYRVVSVLTVLHQDWLNGKEYKCKVSNKALPAPIEKTISKAKGQPREPQVYTLPPSREEMTKNQVSLTCLVKGFYPSDIAVEWESNGQPENNYKTTPPVLDSDGSFFLYSRLTVDKSRWQQGNVFSCSVLHEALHSHYTQKSLSLSPGK light 1: not shown heavy 2: QVQLVQSGAEVKKPGASVKVSCKASGYDYTYYGISWVRQAPGQGLEWMGWISTYNTGTHYAPSLQGRVTMTTDTSTSTAYMELRSLRSDDTAVYYCARESYYGSGAFRGGMDVWGQGTTVTVSSASTKGPSVFPLAPSSKSTSGGTAALGCLVKDYFPEPVTVSWNSGALTSGVHTFPAVLQSSGLYSLSSVVTVPSSSLGTQTYICNVNHKPSNTKVDKKVEPKSCEKTHTCPECPAPEAAGAPSVFLFPPKPKDTLMISRTPEVTCVVVDVSHEDPEVKFNWYVDGVEVHNAKTKPREEQYNSTYRVVSVLTVLHQDWLNGKEYKCKVSNKALPAPIEKTISKAKGQPREPQVYTLPPSREEMTKNQVSLTCEVKGFYPSDIAVEWESNGQPENNYKTTPPVLDSDGSFFLYSKLTVDKSRWQQGNVFSCSVLHEALHSHYTQKSLSLSPGK light 2: not shown
0.183 nM | 5.6e-05 s⁻¹ | 307000 M⁻¹ s⁻¹ | 0.859 nM | 0.00152 s⁻¹ | 1.77e+06 M⁻¹ s⁻¹ | 0.0738 nM | 0.000524 s⁻¹ | 7.11e+06 M⁻¹ s⁻¹ | p40TL1A-0021 (bispecific antibody, dual cell, EE/RR, LS) heavy 1: EVQLVQSGAEVKKPGESLKISCKGSGYSFTTYWLGWVRQMPGKGLDWIGIMSPVDSDIRYSPSFQGQVTMSVDKSITTAYLQWNSLKASDTAMYYCARRRPGQGYFDFWGQGTLVTVSSASTKGPSVFPLAPSSKSTSGGTAALGCLVKDYFPEPVTVSWNSGALTSGVHTFPAVLQSSGLYSLSSVVTVPSSSLGTQTYICNVNHKPSNTKVDKKVEPKSCRKTHTCPPCPAPEAAGAPSVFLFPPKPKDTLMISRTPEVTCVVVDVSHEDPEVKFNWYVDGVEVHNAKTKPREEQYNSTYRVVSVLTVLHQDWLNGKEYKCKVSNKALPAPIEKTISKAKGQPREPQVYTLPPSREEMTKNQVSLTCLVKGFYPSDIAVEWESNGQPENNYKTTPPVLDSDGSFFLYSRLTVDKSRWQQGNVFSCSVLHEALHSHYTQKSLSLSPGK light 1: not shown heavy 2: QVQLVQSGAEVKKPGASVKVSCKASGYDYTYYGISWVRQAPGQGLEWMGWISTYNTGTHYAPSLQGRVTMTTDTSTSTAYMELRSLRSDDTAVYYCARESYYGSGAFRGGMDVWGQGTTVTVSSASTKGPSVFPLAPSSKSTSGGTAALGCLVKDYFPEPVTVSWNSGALTSGVHTFPAVLQSSGLYSLSSVVTVPSSSLGTQTYICNVNHKPSNTKVDKKVEPKSCEKTHTCPPCPAPEAAGAPSVFLFPPKPKDTLMISRTPEVTCVVVDVSHEDPEVKFNWYVDGVEVHNAKTKPREEQYNSTYRVVSVLTVLHQDWLNGKEYKCKVSNKALPAPIEKTISKAKGQPREPQVYTLPPSREEMTKNQVSLTCEVKGFYPSDIAVEWESNGQPENNYKTTPPVLDSDGSFFLYSKLTVDKSRWQQGNVFSCSVLHEALHSHYTQKSLSLSPGK light 2: not shown
